Source: patent publication US20210324080A1

Key:
[1] = target: CTLA-4-hFc (immunogen A; hFc-labeled CTLA-4 extracellular domain protein) (human) (UniProt P16410); test: ELISA, coated CTLA-4-hFc, competitor biotin-B7.1-hFc
[2] = target: CTLA-4-hFc (immunogen A; hFc-labeled CTLA-4 extracellular domain protein) (human) (UniProt P16410); test: ELISA, coated CTLA-4-hFc, competitor biotin-B7.2-hFc
[3] = target: human CTLA-4 (Y201V), full length, on transfected cells (human) (UniProt P16410); test: FACS, CHOK1-hCTLA-4 cells
[4] = target: human CTLA-4 (Y201V), full length, on transfected cells (human) (UniProt P16410); test: FACS, human CTLA-4 expressing cells
[5] = target: monkey CTLA-4, full length, on transfected HEK293 cells (monkey); test: FACS, monkey CTLA-4 expressing cells
[6] = target: monkey CTLA-4, full length, on transfected HEK293 cells (monkey); test: FACS, 293F-cCTLA-4 cells
[7] = target: CTLA-4-hFc (immunogen A; hFc-labeled CTLA-4 extracellular domain protein) (human) (UniProt P16410); test: blocking assay, CTLA-4 protein, competitor B7.1
[8] = target: CTLA-4-hFc (immunogen A; hFc-labeled CTLA-4 extracellular domain protein) (human) (UniProt P16410); test: blocking assay, CTLA-4 protein, competitor B7.2

Chain of CTLA-4-hFc (immunogen A; hFc-labeled CTLA-4 extracellular domain protein) (human) (P16410 36-161 limits assumed): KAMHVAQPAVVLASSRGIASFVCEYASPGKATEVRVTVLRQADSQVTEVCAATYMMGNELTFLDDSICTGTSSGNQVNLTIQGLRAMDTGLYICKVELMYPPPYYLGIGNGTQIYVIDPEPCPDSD
Chain of human CTLA-4 (Y201V), full length, on transfected cells (human) (P16410 36-223 Y201V): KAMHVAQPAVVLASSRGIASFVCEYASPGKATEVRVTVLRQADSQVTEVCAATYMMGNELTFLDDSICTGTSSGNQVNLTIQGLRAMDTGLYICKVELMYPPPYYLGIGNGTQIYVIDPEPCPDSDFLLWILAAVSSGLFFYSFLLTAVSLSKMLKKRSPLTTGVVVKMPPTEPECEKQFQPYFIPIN

hIgG4 (antibody)
Inhibition rate (%) at 0.00091 nM [1]: 0% | Inhibition rate (%) at 0.091 nM [1]: -36% | Inhibition rate (%) at 0.274 nM [1]: -41% | Inhibition rate (%) at 0.823 nM [1]: -37% | Inhibition rate (%) at 2.5 nM [1]: -39% | Inhibition rate (%) at 7.4 nM [1]: -40% | Inhibition rate (%) at 22.2 nM [1]: -41% | Inhibition rate (%) at 66.7 nM [1]: -10% | Inhibition rate (%) at 0.00091 nM [2]: 0% | Inhibition rate (%) at 0.091 nM [2]: -8% | Inhibition rate (%) at 0.274 nM [2]: -10% | Inhibition rate (%) at 0.823 nM [2]: -1% | Inhibition rate (%) at 2.5 nM [2]: -7% | Inhibition rate (%) at 7.4 nM [2]: -12% | Inhibition rate (%) at 22.2 nM [2]: 10% | Inhibition rate (%) at 66.7 nM [2]: 61%

IgG control (human IgG) (antibody)
MFI at 0.07 nM [3]: 2 | MFI at 0.67 nM [3]: 2 | MFI at 6.67 nM [3]: 3 | MFI at 66.67 nM [3]: 8 | MFI at 0.000128 nM [4]: 3 | MFI at 0.0128 nM [4]: 3 | MFI at 0.064 nM [4]: 3 | MFI at 0.32 nM [4]: 3 | MFI at 1.6 nM [4]: 3 | MFI at 8 nM [4]: 3 | MFI at 40 nM [4]: 4 | MFI at 200 nM [4]: 6 | MFI at 0.000128 nM [5]: 3 | MFI at 0.0128 nM [5]: 3 | MFI at 0.064 nM [5]: 3 | MFI at 0.32 nM [5]: 2 | MFI at 1.6 nM [5]: 3 | MFI at 8 nM [5]: 3 | MFI at 40 nM [5]: 3 | MFI at 200 nM [5]: 5

hIgG1 (antibody)
MFI at 0.000128 nM [6]: 2.7 | MFI at 0.0128 nM [6]: 2.6 | MFI at 0.064 nM [6]: 2.6 | MFI at 0.32 nM [6]: 2.4 | MFI at 1.6 nM [6]: 2.6 | MFI at 8 nM [6]: 2.9 | MFI at 40 nM [6]: 3.3 | MFI at 200 nM [6]: 4.9 | % Block at 0.000128 nM [7]: 0% | % Block at 0.0128 nM [7]: -2% | % Block at 0.064 nM [7]: 0.2% | % Block at 1.6 nM [7]: 1.3% | % Block at 8 nM [7]: -0.1% | % Block at 40 nM [7]: 1.6% | % Block at 200 nM [7]: -0.3% | % Block at 0.000128 nM [8]: 0% | % Block at 0.0128 nM [8]: 12.3% | % Block at 0.064 nM [8]: 12.9% | % Block at 0.32 nM [8]: 15.5% | % Block at 1.6 nM [8]: 4.1% | % Block at 8 nM [8]: 4.9% | % Block at 40 nM [8]: 18.3% | % Block at 200 nM [8]: 12.4%
